The data set addresses T1, AP2-HC D1 (Plasmodium falciparum, UniProt Q8IKR9 1316-1374).
T1 sequence: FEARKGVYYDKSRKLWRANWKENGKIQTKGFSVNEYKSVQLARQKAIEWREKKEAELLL
Description: gcPBM; about 25 ug protein; PBS, 1% milk, 0.2 mg/ml BSA, salmon testes DNA, 0.03% Triton X-100. Particulars: tags: N-terminal GST (pGEX-4T-1), kept; label: surface-attached array probe.

B1: CACACA_site8823 (dsDNA)
DNA 1: TAATTATGCCAACACACACACACACCCAACTAAAAA
DNA 2: TTTTTAGTTGGGTGTGTGTGTGTGTTGGCATAATTA
As to B1, the binding signal is 10.8 ln median PBM intensity, better of two orientations.

B2: CACACA_site6373 (dsDNA)
DNA 1: AACATACATAGACACACACACACACGCACACGCACA
DNA 2: TGTGCGTGTGCGTGTGTGTGTGTGTCTATGTATGTT
With B2, the binding signal was 11 ln median PBM intensity, better of two orientations.

B3: CACACA_site8795 (dsDNA)
DNA 1: CTTATATATTGCCCTTCACACACACCCATATATATA
DNA 2: TATATATATGGGTGTGTGTGAAGGGCAATATATAAG
As for B3, the binding signal was 10.6 ln median PBM intensity, better of two orientations.

B4: CACACA_site1725 (dsDNA)
DNA 1: CATATATACGCATACACACACACACCCACACCCACA
DNA 2: TGTGGGTGTGGGTGTGTGTGTGTATGCGTATATATG
In the case of B4, the binding signal was 10.7 ln median PBM intensity, better of two orientations.

B5: CACACA_site6301 (dsDNA)
DNA 1: CACACGCACAGACACACACACACACGGATATAAATA
DNA 2: TATTTATATCCGTGTGTGTGTGTGTCTGTGCGTGTG
On to B5, for which the binding signal is 11.7 ln median PBM intensity, better of two orientations.

B6: CACACA_site4891 (dsDNA)
DNA 1: TAATAAATAGGACACACACACATATATATATATTAT
DNA 2: ATAATATATATATATGTGTGTGTGTCCTATTTATTA
Take B6: the binding signal was 10.5 ln median PBM intensity, better of two orientations.

B7: CACACA_site3306 (dsDNA)
DNA 1: CAACATTTGAAACACACACACATACAAACAAACAAA
DNA 2: TTTGTTTGTTTGTATGTGTGTGTGTTTCAAATGTTG
Take B7: the binding signal is 11.8 ln median PBM intensity, better of two orientations.

B8: CACACA_site3497 (dsDNA)
DNA 1: AGCAAATACAAACACACACACACATATACATATATA
DNA 2: TATATATGTATATGTGTGTGTGTGTTTGTATTTGCT
On to B8, for which the binding signal was 11.7 ln median PBM intensity, better of two orientations.

B9: CACACA_site803 (dsDNA)
DNA 1: AAAAAAAACAAATACACACGCACACCGAAAAAAAAA
DNA 2: TTTTTTTTTCGGTGTGCGTGTGTATTTGTTTTTTTT
With B9, the binding signal is 10.9 ln median PBM intensity, better of two orientations.

B10: CACACA_site4189 (dsDNA)
DNA 1: AAAAAAAACGGACACACACACATTCAATATAAAACA
DNA 2: TGTTTTATATTGAATGTGTGTGTGTCCGTTTTTTTT
For B10, the binding signal is 11.8 ln median PBM intensity, better of two orientations.

B11: CACACA_site4398 (dsDNA)
DNA 1: AGTATACTCAAACACACACACACAAAAAAAAAAAAA
DNA 2: TTTTTTTTTTTTTGTGTGTGTGTGTTTGAGTATACT
On to B11, for which the binding signal is 11.8 ln median PBM intensity, better of two orientations.

B12: CACACA_site4465 (dsDNA)
DNA 1: AAATAATATAAATACACACACACATATATAAATACA
DNA 2: TGTATTTATATATGTGTGTGTGTATTTATATTATTT
Take B12: the binding signal was 11.7 ln median PBM intensity, better of two orientations.

B13: CACACA_site6216 (dsDNA)
DNA 1: AAAAAAAAAAGACACACACACACACGGAGATATATA
DNA 2: TATATATCTCCGTGTGTGTGTGTGTCTTTTTTTTTT
For B13, the binding signal was 11.7 ln median PBM intensity, better of two orientations.

B14: CACACA_site2432 (dsDNA)
DNA 1: CAAACCCACCAACACACACACACAAAAATGATTAAA
DNA 2: TTTAATCATTTTTGTGTGTGTGTGTTGGTGGGTTTG
As for B14, the binding signal was 10.5 ln median PBM intensity, better of two orientations.

B15: CACACA_site8770 (dsDNA)
DNA 1: AACAAACACAGACACACACACACACTAATATGATTA
DNA 2: TAATCATATTAGTGTGTGTGTGTGTCTGTGTTTGTT
Turning to B15, the binding signal is 11.7 ln median PBM intensity, better of two orientations.

B16: CACACA_site336 (dsDNA)
DNA 1: GGAGCACCCAGACACACACACACATATATATATATA
DNA 2: TATATATATATATGTGTGTGTGTGTCTGGGTGCTCC
As for B16, the binding signal was 10.6 ln median PBM intensity, better of two orientations.

B17: CACACA_site8023 (dsDNA)
DNA 1: CCTGAACACATACATACACACACACTAATAAAAAAA
DNA 2: TTTTTTTATTAGTGTGTGTGTATGTATGTGTTCAGG
As for B17, the binding signal was 11.3 ln median PBM intensity, better of two orientations.

B18: CACACA_site6714 (dsDNA)
DNA 1: ATAATACACAAGCACACACACACACGGATATTTATA
DNA 2: TATAAATATCCGTGTGTGTGTGTGCTTGTGTATTAT
B18: the binding signal is 11.8 ln median PBM intensity, better of two orientations.

B19: CACACA_site6495 (dsDNA)
DNA 1: TTAAACTTGAGACACACACACACACGGATATAAAAA
DNA 2: TTTTTATATCCGTGTGTGTGTGTGTCTCAAGTTTAA
For B19, the binding signal was 11.8 ln median PBM intensity, better of two orientations.

B20: CACACA_site758 (dsDNA)
DNA 1: TTAAACTTGAAACACACACACACACCCATATAAAAA
DNA 2: TTTTTATATGGGTGTGTGTGTGTGTTTCAAGTTTAA
Consider B20, for which the binding signal was 11.7 ln median PBM intensity, better of two orientations.

B21: CACACA_site8718 (dsDNA)
DNA 1: ATAATTTGTGGACACACACACACACCGACATATATA
DNA 2: TATATATGTCGGTGTGTGTGTGTGTCCACAAATTAT
In the case of B21, the binding signal is 11.8 ln median PBM intensity, better of two orientations.

B22: CACACA_site4551 (dsDNA)
DNA 1: AAAAAAAAAAAACACACACACACACTAGTACATACA
DNA 2: TGTATGTACTAGTGTGTGTGTGTGTTTTTTTTTTTT
As for B22, the binding signal is 11.8 ln median PBM intensity, better of two orientations.

B23: CACACA_site8328 (dsDNA)
DNA 1: TTGGGTCAAACATAAACACACACAAAAAGAAAAAAT
DNA 2: ATTTTTTCTTTTTGTGTGTGTTTATGTTTGACCCAA
As to B23, the binding signal was 10.7 ln median PBM intensity, better of two orientations.

B24: CACACA_site6334 (dsDNA)
DNA 1: AAAAAAAAAAGACACACACACAAATACAAATACATA
DNA 2: TATGTATTTGTATTTGTGTGTGTGTCTTTTTTTTTT
In the case of B24, the binding signal was 10.9 ln median PBM intensity, better of two orientations.

B25: CACACA_site3056 (dsDNA)
DNA 1: AGCTCTTGTCATTTTGCACACACACCCGTATAGGTT
DNA 2: AACCTATACGGGTGTGTGTGCAAAATGACAAGAGCT
In the case of B25, the binding signal is 11 ln median PBM intensity, better of two orientations.

B26: CACACA_site482 (dsDNA)
DNA 1: GAATAATCCAAACACACACACACACCCGAATAAATA
DNA 2: TATTTATTCGGGTGTGTGTGTGTGTTTGGATTATTC
B26: the binding signal was 11.7 ln median PBM intensity, better of two orientations.

B27: CACACA_site118 (dsDNA)
DNA 1: ATATATATATATTACACACACACAAAAAAAATAAAG
DNA 2: CTTTATTTTTTTTGTGTGTGTGTAATATATATATAT
As to B27, the binding signal is 11.7 ln median PBM intensity, better of two orientations.

B28: CACACA_site1447 (dsDNA)
DNA 1: AAAAAAAAAAAACACACACACACACCCACAAAATAT
DNA 2: ATATTTTGTGGGTGTGTGTGTGTGTTTTTTTTTTTT
Consider B28, for which the binding signal is 11.7 ln median PBM intensity, better of two orientations.

B29: CACACA_site5428 (dsDNA)
DNA 1: AAAAGATAATTATGCACACACACACCCAGACACAAC
DNA 2: GTTGTGTCTGGGTGTGTGTGTGCATAATTATCTTTT
B29: the binding signal was 11.7 ln median PBM intensity, better of two orientations.

B30: CACACA_site7659 (dsDNA)
DNA 1: AGAATAAAAAGGAACACACACACACGCATATAAATA
DNA 2: TATTTATATGCGTGTGTGTGTGTTCCTTTTTATTCT
As for B30, the binding signal is 11.7 ln median PBM intensity, better of two orientations.

B31: CACACA_site8113 (dsDNA)
DNA 1: CACGCATACAGACACACACACACACCGATATATATA
DNA 2: TATATATATCGGTGTGTGTGTGTGTCTGTATGCGTG
Consider B31, for which the binding signal is 11.1 ln median PBM intensity, better of two orientations.

B32: CACACA_site1505 (dsDNA)
DNA 1: TATATATATATATACACACACACAAAAAAAAAAAAA
DNA 2: TTTTTTTTTTTTTGTGTGTGTGTATATATATATATA
For B32, the binding signal was 11.3 ln median PBM intensity, better of two orientations.

B33: CACACA_site270 (dsDNA)
DNA 1: AATACTTATTATGAAACACACACCAAAACTACATAA
DNA 2: TTATGTAGTTTTGGTGTGTGTTTCATAATAAGTATT
With B33, the binding signal was 10.7 ln median PBM intensity, better of two orientations.

B34: CACACA_site4573 (dsDNA)
DNA 1: TATGCAAGGAACCACACACACACACCGAAATGTATA
DNA 2: TATACATTTCGGTGTGTGTGTGTGGTTCCTTGCATA
As for B34, the binding signal is 10.6 ln median PBM intensity, better of two orientations.

B35: CACACA_site5780 (dsDNA)
DNA 1: ATAAATTAAAAACACACACACATCTGGATACCCCTA
DNA 2: TAGGGGTATCCAGATGTGTGTGTGTTTTTAATTTAT
As for B35, the binding signal is 11.5 ln median PBM intensity, better of two orientations.

B36: CACACA_site4006 (dsDNA)
DNA 1: ATAAGGAAGGGATGCACACAAAAGGGTACATAAGAA
DNA 2: TTCTTATGTACCCTTTTGTGTGCATCCCTTCCTTAT
For the molecule B36, the binding signal is 10.5 ln median PBM intensity, better of two orientations.

B37: CACACA_site1963 (dsDNA)
DNA 1: AACTTGTATATATACACACACACACTGTCTTTTTTT
DNA 2: AAAAAAAGACAGTGTGTGTGTGTATATATACAAGTT
Turning to B37, the binding signal was 10.5 ln median PBM intensity, better of two orientations.

B38: CACACA_site2012 (dsDNA)
DNA 1: AATATGAACAGACACACACACACAAAAAAAAAAAAA
DNA 2: TTTTTTTTTTTTTGTGTGTGTGTGTCTGTTCATATT
Take B38: the binding signal is 11.8 ln median PBM intensity, better of two orientations.

B39: CACACA_site1585 (dsDNA)
DNA 1: AAAATAAAAAAAAACACACACATACAAGCATATATA
DNA 2: TATATATGCTTGTATGTGTGTGTTTTTTTTTATTTT
B39: the binding signal was 11.2 ln median PBM intensity, better of two orientations.

B40: CACACA_site2857 (dsDNA)
DNA 1: AAAAAAAACAGACACACACACATACACATACATACA
DNA 2: TGTATGTATGTGTATGTGTGTGTGTCTGTTTTTTTT
As to B40, the binding signal is 11.8 ln median PBM intensity, better of two orientations.

B41: CACACA_site2860 (dsDNA)
DNA 1: AAAAAAAAAAAAAACACACACACACCCATACACATA
DNA 2: TATGTGTATGGGTGTGTGTGTGTTTTTTTTTTTTTT
As to B41, the binding signal was 11.7 ln median PBM intensity, better of two orientations.

Source of the values: article PMC11417369, “DNA sequence and chromatin differentiate sequence-specific transcription factor binding in the human malaria parasite Plasmodium falciparum”.
